From the supplement of paper PMC10899765

test system: MCF10A; experiment: one-nucleolus phenotype percent effect (relative to siNT 0% and siNOL11 100%); higher = more cells with one nucleolus (ribosome biogenesis inhibition); conditions: 20 nM; 72 h
Procedure: (§1)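 After 72 h, cells were fixed and stained with Hoechst and anti-fibrillarin, and nucleoli per nucleus were counted with CellProfiler. Values are plate-adjusted percent effect for the one-nucleolus and 5+ nucleoli phenotypes, normalised to siNT (0%) and to the positive controls siNOL11 or siKIF11 (100%), as the mean of biological triplicates. Percent viability is the nuclei count relative to siNT.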

Sequence | one-nucleolus phenotype percent effect
CUGGGUGAGGGCAUCUGUGGU [hsa-miR-6736-5p] | 34.4%
GCGGGGGUGGCGGCGGCAUCCC [hsa-miR-4787-5p] | -21.5%
GCUAGUCCUGACUCAGCCAGU [hsa-miR-554] | -12.9%
CUGUACAGCCUCCUAGCUUUCC [hsa-let-7a-2-3p] | 2.44%
UGGGAGAGAGGACUGUGAGGC [hsa-miR-8085] | 21.4%
GAGCUUAUUCAUAAAAGUGCAG [hsa-miR-590-5p] | -0.31%
AGCUUCCAUGACUCCUGAUGGA [hsa-miR-2115-5p] | -7.01%
CAAUUUAGUGUGUGUGAUAUUU [hsa-miR-32-3p] | -22.3%
UGCCGCCCUCUCGCUGCUCUAG [hsa-miR-4632-3p] | 7.5%
UGCUGGAUCAGUGGUUCGAGUC [hsa-miR-1287] | 64.1%
CUAUACAGUCUACUGUCUUUCC [hsa-let-7f-2-3p] | -3.58%
GGGUGCGGGCCGGCGGGG [hsa-miR-4466] | -13.2%
AAUGUGGAAGUGGUCUGAGGCAU [hsa-miR-4657] | 10.1%
UCUCCCUUCCUGCCCUGGCUAG [hsa-miR-4685-3p] | -25.3%
AAGCAAUACUGUUACCUGAAAU [hsa-miR-3942-5p] | -6.02%
GGGACCCAGGGAGAGACGUAAG [hsa-miR-711] | -15.3%
ACUGAUUAUCUUAACUCUCUGA [hsa-miR-3920] | -37.8%
UGGUUUACCGUCCCACAUACAU [hsa-miR-299-5p] | 24.1%
UUCUCGAGGAAAGAAGCACUUUC [hsa-miR-516a-5p] | -19.5%
CGGGGGCGGGGCCGAAGCGCG [hsa-miR-1237-5p] | -22%
AUCUGCCAGCUUCCACAGUGG [hsa-miR-4727-5p] | 17.9%
ACCGUGCAAAGGUAGCAUA [hsa-miR-1973] | 2.66%
UCCAGUACAGGUCUCUCAUUUC [hsa-miR-4712-5p] | 11%
UUUAAGCAGGAAAUAGAAUUUA [hsa-miR-4503] | -6.55%
AAUCCUUGGAACCUAGGUGUGAGU [hsa-miR-362-5p] | -1.23%
AUGGGGUGAGAUGGGGAGGAGCAGC [hsa-miR-6812-5p] | 12.2%
CAAUGUUUCCACAGUGCAUCAC [hsa-miR-33a-3p] | -10.4%
AAAGUUCUGAGACACUCCGACU [hsa-miR-148a-5p] | -5.53%
AACGGCAAUGACUUUUGUACCA [hsa-miR-548al] | -4.22%
ACUCAAAACCCUUCAGUGACUU [hsa-miR-616-5p] | -11.3%

test system: MCF10A; experiment: 5+ nucleoli phenotype percent effect (relative to siNT 0% and siKIF11 100%); higher = more cells with five or more nucleoli; conditions: 20 nM; 72 h
Procedure: as §1

Sequence | 5+ nucleoli phenotype percent effect
UUACACACAACUGAGGAUCAUA [hsa-miR-3941] | 0.22%
AAUCCCAAUGCUAGACCCGGUG [hsa-miR-4733-5p] | 2.55%
AGAGGCUUUGUGCGGAUACGGGG [hsa-miR-3188] | -26%
AAUGAGAGACCUGUACUGUAU [hsa-miR-4712-3p] | -22.6%
UUGGAAUAGGGGAUAUCUCAGC [hsa-miR-6505-5p] | -46.6%
UAAUUGCUUCCAUGUUU [hsa-miR-302f] | -31.2%
GCUUCUGUAGUGUAGUC [hsa-miR-3182] | 35.6%
UGAGUUGGCCAUCUGAGUGAG [hsa-miR-571] | 5.09%
UGGGGAGCUGAGGCUCUGGGGGUG [hsa-miR-939-5p] | 17%
CUGGGGAGUGGCUGGGGAG [hsa-miR-6763-5p] | -2.28%
UGGGGGUGGUCUCUAGCCAAGG [hsa-miR-6842-5p] | -11.8%
UACAGUAUAGAUGAUGUACU [hsa-miR-144-3p] | -8.45%
CCAAACCAGUCGUGCCUGUGG [hsa-miR-6715a-3p] | -42%
CAGGGUCAGCUGAGCAUG [hsa-miR-1178-5p] | 8.34%
CACUUAGCAGGUUGUAUUAUAU [hsa-miR-374c-3p] | 0.0114%
UGCGGGGACAGGCCAGGGCAUC [hsa-miR-4749-5p] | -24.9%
UAGUAGACCGUAUAGCGUACG [hsa-miR-411-5p] | 15.2%
UCCAUGUUUCCUUCCCCCUUCU [hsa-miR-4716-5p] | -43.5%
AGAAGUAAUUGCGGUUUUGCCA [hsa-miR-548ax] | -15.7%
UAUUGCACAUUACUAAGUUGCA [hsa-miR-32-5p] | 9.82%

Sequence | 5+ nucleoli phenotype percent effect
GGCUACAACACAGGACCCGGGC [hsa-miR-187-5p] | 15.6%
AAAUGGGUGGUCUGAGGCAA [hsa-miR-4506] | -7.36%
AAAAGUAUUUGCGGGUUUUGUC [hsa-miR-548l] | 30%
UGCCUUCCUGUCUGUG [hsa-miR-4297] | -10.3%
GGGAUAUGAAGAAAAAU [hsa-miR-3201] | 40.5%
ACAUCGCCCCACCUUCCCCAG [hsa-miR-6785-3p] | 55.5%
UACGUCAUCGUUGUCAUCGUCA [hsa-miR-598] | 47.8%
CCUCUCCUCCCUGUGCCCCAG [hsa-miR-6845-3p] | 26.2%
UGAGGUAGUAGAUUGUAUAGUU [hsa-let-7f-5p] | 25.3%
UCAGGCUCAGUCCCCUCCCGAU [hsa-miR-484] | 40.7%
CUGGGUGAGGGCAUCUGUGGU [hsa-miR-6736-5p] | -27%
GCGGGGGUGGCGGCGGCAUCCC [hsa-miR-4787-5p] | 25.2%
GCUAGUCCUGACUCAGCCAGU [hsa-miR-554] | 10.2%
CUGUACAGCCUCCUAGCUUUCC [hsa-let-7a-2-3p] | -34.3%
UGGGAGAGAGGACUGUGAGGC [hsa-miR-8085] | -1.75%
GAGCUUAUUCAUAAAAGUGCAG [hsa-miR-590-5p] | -1.22%
AGCUUCCAUGACUCCUGAUGGA [hsa-miR-2115-5p] | -3.91%
CAAUUUAGUGUGUGUGAUAUUU [hsa-miR-32-3p] | 35.1%
UGCCGCCCUCUCGCUGCUCUAG [hsa-miR-4632-3p] | -6.54%
UGCUGGAUCAGUGGUUCGAGUC [hsa-miR-1287] | -26.2%

Sequence | 5+ nucleoli phenotype percent effect
CUAUACAGUCUACUGUCUUUCC [hsa-let-7f-2-3p] | 4.65%
GGGUGCGGGCCGGCGGGG [hsa-miR-4466] | 12.7%
AAUGUGGAAGUGGUCUGAGGCAU [hsa-miR-4657] | 6.84%
UCUCCCUUCCUGCCCUGGCUAG [hsa-miR-4685-3p] | 29.5%
AAGCAAUACUGUUACCUGAAAU [hsa-miR-3942-5p] | 13.9%
GGGACCCAGGGAGAGACGUAAG [hsa-miR-711] | 30.4%
ACUGAUUAUCUUAACUCUCUGA [hsa-miR-3920] | 38.1%
UGGUUUACCGUCCCACAUACAU [hsa-miR-299-5p] | -19.4%
UUCUCGAGGAAAGAAGCACUUUC [hsa-miR-516a-5p] | 22.1%
CGGGGGCGGGGCCGAAGCGCG [hsa-miR-1237-5p] | 45.4%
AUCUGCCAGCUUCCACAGUGG [hsa-miR-4727-5p] | -25.7%
ACCGUGCAAAGGUAGCAUA [hsa-miR-1973] | -30.8%
UCCAGUACAGGUCUCUCAUUUC [hsa-miR-4712-5p] | -15.1%
UUUAAGCAGGAAAUAGAAUUUA [hsa-miR-4503] | -5.17%
AAUCCUUGGAACCUAGGUGUGAGU [hsa-miR-362-5p] | -6.28%
AUGGGGUGAGAUGGGGAGGAGCAGC [hsa-miR-6812-5p] | -19.9%
CAAUGUUUCCACAGUGCAUCAC [hsa-miR-33a-3p] | 2.57%
AAAGUUCUGAGACACUCCGACU [hsa-miR-148a-5p] | 9.44%
AACGGCAAUGACUUUUGUACCA [hsa-miR-548al] | -4.48%
ACUCAAAACCCUUCAGUGACUU [hsa-miR-616-5p] | 21.5%
